These results are taken from patent US20170247475A1 (Boehringer Ingelheim, published 2017).

Assay [1] deals with T1, human PIGF (human, UniProt P49763-2 21-149, limits assumed).
T1 construct: also called hPIGF; PLGF
T1 sequence (looked up): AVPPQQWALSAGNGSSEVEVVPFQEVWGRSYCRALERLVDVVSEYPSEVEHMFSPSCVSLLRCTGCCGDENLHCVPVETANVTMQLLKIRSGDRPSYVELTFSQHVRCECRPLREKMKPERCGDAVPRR
Kind of assay: solid phase binding ELISA. As to the method: (§1) Binding to VEGFB, VEGFC, VEGFD and PIGF is assessed via a solid phase binding ELISA. In brief, VEGFB, VEGFC, VEGFD and PIGF (R&D Systems, Minneapolis, Minn., USA) are coated overnight at 4° C. at 1 μg/mL in a 96-well MaxiSorp plate (Nunc, Wiesbaden, Germany). Wells are blocked with a casein solution (1% in PBS). […] As positive controls serial dilutions of the appropriate receptors are taken along and detected with horseradish peroxidase (HRP)-conjugated goat anti-human IgG, Fc specific antibody (Jackson Immuno Research Laboratories Inc., West Grove, Pa., USA) and a subsequent enzymatic reaction in the presence of the substrate TMB (3,3′,5,5′-tetramentylbenzidine) (Pierce, Rockford, Ill., USA).
(An ELISA detects its analyte on a solid surface through an enzyme-linked reagent.)

The target in assay [2] is T2, human VEGF-D (human, UniProt O43915 93-201).
T2 construct: also called hVEGF-D
T2 sequence (looked up): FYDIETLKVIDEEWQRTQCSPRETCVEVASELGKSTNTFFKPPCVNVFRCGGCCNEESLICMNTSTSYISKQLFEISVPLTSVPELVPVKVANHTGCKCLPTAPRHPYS
Kind of assay: solid phase binding ELISA. As to the method: as §1

In assay [3] the target is T3, recombinant human VEGF165 (human, UniProt P15692-4 27-191).
T3 construct: also called hVEGF165; rhVEGF165
The assay can be described thus: hVEGF165/hVEGFR1-Fc competition ELISA.
Target sequence in this assay (P15692 other isoform, or with tags, fused parts or gaps limits assumed): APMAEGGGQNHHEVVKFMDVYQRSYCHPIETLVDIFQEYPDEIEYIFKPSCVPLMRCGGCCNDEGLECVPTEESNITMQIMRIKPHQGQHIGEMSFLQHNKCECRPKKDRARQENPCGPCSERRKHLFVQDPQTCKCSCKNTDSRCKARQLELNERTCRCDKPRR

Assay [4] concerns the target T3, recombinant human VEGF165. The assay can be described thus: hVEGF165/hVEGFR2-Fc competition AlphaScreen. The method, then: Finally, streptavidin donor beads (20 μg/ml) are added and after 1 hour of incubation in the dark, fluorescence is measured on the Envision microplate reader.
Target sequence in this assay (P15692 other isoform, or with tags, fused parts or gaps limits assumed): as above
Assay [5] has as its target T3, recombinant human VEGF165. The assay can be described thus: Biacore, periplasmic extract on hVEGF165 chip. For orientation: In SPR one partner is held on a chip, and binding of the other changes the refractive index at the surface.
Target sequence in this assay (P15692 other isoform, or with tags, fused parts or gaps limits assumed): as above
Assay [6] concerns the target T3, recombinant human VEGF165. The assay can be described thus: kd1; SPR Biacore T100, hVEGF165 on chip, Two State Reaction model. As to the method: Samples are injected for 2 min and allowed to dissociate up to 20 min at a flow rate of 45 μI/min. In between sample injections, the chip surface is regenerated with 100 mM HCl. HBS-EP+(Hepes buffer pH7.4+EDTA) is used as running buffer. Binding curves are fitted using a Two State Reaction model by Biacore T100 Evaluation Software v2.0.1.
^{(a)}Heterogeneous binding curve resulting in no 1:1 fit, curves are fitted using a Two State Reaction model by Biacore T100 Evaluation Software v2.0.1

The target in assay [7] is T3, recombinant human VEGF165. Kind of assay: Biacore, periplasmic extract on hVEGF165 chip, two phase decay fit.
Target sequence in this assay (P15692 other isoform, or with tags, fused parts or gaps limits assumed): as above
In assay [8] the target is T3, recombinant human VEGF165. Kind of assay: ka1; SPR Biacore T100 on hVEGF165.
Target sequence in this assay (P15692 other isoform, or with tags, fused parts or gaps limits assumed): as above
In assay [9] the target is T3, recombinant human VEGF165. Kind of assay: kd1; SPR Biacore T100 on hVEGF165.
Target sequence in this assay (P15692 other isoform, or with tags, fused parts or gaps limits assumed): as above
In assay [10] the target is T3, recombinant human VEGF165. Kind of assay: competition AlphaScreen, blocking of hVEGF165 binding to hVEGFR2-Fc.
Assay [11] deals with T3, recombinant human VEGF165. The assay can be described thus: AlphaScreen competition, 0.05 nM hVEGF165 and 0.05 nM hVEGFR2-Fc; blocked: hVEGFR2-Fc. On the technique in general: In Alpha technology, singlet oxygen from a donor bead excites a nearby acceptor bead.
Assay [12] concerns the target T3, recombinant human VEGF165. Described as above. The source holds these as a separate data set.
Assay [13] addresses T3, recombinant human VEGF165. The assay can be described thus: AlphaScreen competition, 0.05 nM hVEGF165 and 0.05 nM hVEGFR1-Fc; blocked: hVEGFR1-Fc.
Assay [14] deals with T3, recombinant human VEGF165. Described as above. This is another data set of the same source.
Assay [15] deals with T3, recombinant human VEGF165. Described as above. This is another data set of the same source.
In assay [16] the target is T3, recombinant human VEGF165. The description is as above. This is another data set of the same source.

Where a chain is given by its changes, count along the chain named.

B1: VEGFBII23B04 (VHH)
VHH: EVQLVESGGGLVQTGDSLRLSCEVSGRTFSSYSMGWFRQAQGKEREFVVAISKGGYKYDSVSLEGRFTISKDNAKNTVYLQINSLKPEDTAVYYCASSRAYGSSRLRLADTYEYWGQGTQVTVSS
notes: also called VEGFBII23B4; VEGFBII23B04 (wt)
One may read the % inhibition as the drop in the measured response relative to a control, in per cent. What is called IC50 is the point on the concentration scale where inhibition reaches its midpoint. What is called koff is the rate constant with which the complex falls apart. Consider B1, for which the binding result in [1] and in assay [2] was “no binding (tested: 500 nM-32 pM)” in each case. Besides, the “% inhibition” value stood at 64% in assay [3] and 100% in assay [4]. Besides, the figures for the IC50 in assay [3] and in assay [4] were 0.5 nM and 0.16 nM, respectively. Also, the “Binding level (RU)” value in [5] turned out to be 768 RU. In addition, the koff in assay [6] amounted to 0.0086 s⁻¹. Moreover, the “% fast” value in assay [7] amounted to 12%.

B2: VEGFBII038 (VHH)
VHH: B1 VHH with E1D, T14P, D16G, E23A, V24A, Q41P, S60A, K71R, K86R, Q120L
notes: also called VEGFBII0038; VEGFBII00038
By kon is commonly meant a measure of how fast the partners come together. B2: the kon in assay [8] came out at 260000 M⁻¹ s⁻¹. For the same molecule, the koff in assay [9] came to 0.013 s⁻¹. Besides, the “IC50 (read off the curve)” value was around 0.4 nM in [10]; around 0.4 nM in assay [11]; around 0.4 nM in assay [12]; around 0.5 nM in assay [13]; around 0.8 nM in [14]; around 0.5 nM in assay [15]. In addition, in assay [16], the “IC50 (read off the curve)” value is around 0.8 nM.
